Where two headings read alike, the source gives them in different places. Peptide text beside a SMILES is read from it.
B1: Lysozyme (protein, listed as Homo sapiens)
chain: KVYGRCELAAAMKRLGLDNFRGYSLGNWVCAAKFESNFNTHATNRNTDGSTDYGILQINSRWWCNDGRTPGSRNLCNIPCSALLSSDTIASVNCAKKIVSDGNGMNAWVAWRKRCKGTDVNAWTRGCRL

Experiments:
[1] = cited from earlier work; for Isoelectric point pI: Table 1; for Isoelectric point: Table 5
[2] = biological target: human serum albumin (HSA) (Homo sapiens, UniProt P02768); details: for b value of Equation (I) (dissociation mode: b<0.241 single, b≥0.241 multiple) / Δλ (maximum layer thickness change amount, second information): peptide concentration per Table 5

Row | Molecule | Isoelectric point pI [1] | Koff (dissociation rate constant, first information) ([2]; pH 6.9) | Isoelectric point [1] | further results
1 | ACTH partial peptide at the 1-41 positions (GPSYSMEHFRWGKPVGKKRRPVKVYPNGAEDESAEAFPLEF; listed as Homo sapiens) [ACTH41] | 8.3 | – | – | –
2 | inter-α-trypsin inhibitor heavy chain 4 (GESRNRNVHSGSTFFKYYLQGAKIPKPEASFS; listed as Homo sapiens) [ITIH4] | 9.8 | – | – | –
3 | His-decapeptide (HHHHHHHHHH; Synthetic His decapeptide) [(His) 10] | – | 0.00073 s⁻¹ | 7.4 | –
4 | IS 13mer: the 237 to 249th fragments of the amino acid sequence of HSA; SEQ ID NO: 21, AWAVARLSQRFPK (listed as Homo sapiens) | – | 0.01708 s⁻¹ | 12 | b value of Equation (I) (dissociation mode: b<0.241 single, b≥0.241 multiple) ([2]; HSA sensor chip): 0.756; Δλ (maximum layer thickness change amount, second information) ([2]; HSA sensor chip): 0.061 nm
5 | (His) 3: HHH | – | 0.00257 s⁻¹ | 7 | b value of Equation (I) (dissociation mode: b<0.241 single, b≥0.241 multiple) ([2]; HSA sensor chip): 0.344; Δλ (maximum layer thickness change amount, second information) ([2]; HSA sensor chip): 0.027 nm
6 | ACTH15: SEQ ID NO: 11, YSMEHFRWGKPVGKK (listed as Homo sapiens) | 10 | 0.01147 s⁻¹ | 10 | –
7 | ACTH partial peptide at the 1-39 positions (SYSMEHFRWGKPVGKKRRPVKVYPNAGENESAEAFPLEF; listed as Homo sapiens) [ACTH39] | 9.3 | – | – | dissociation mode (third information) ([2]; HSA sensor chip, peptide map FIG. 6, peptide 2 μM): multiple dissociation mode
8 | kininogen (HNLGHGHKHERDQGHGHQR; listed as Homo sapiens) | 8.8 | 0.00493 s⁻¹ | 8.8 | b value of Equation (I) (dissociation mode: b<0.241 single, b≥0.241 multiple) ([2]; HSA sensor chip): 1.093; Δλ (maximum layer thickness change amount, second information) ([2]; HSA sensor chip): 0.082 nm
9 | fibrinogen α (DEAGSEADHEGTHSTKRGHAKSRPV; listed as Homo sapiens) | 6.3 | – | – | –
10 | ACTH partial peptide at the 1-24 positions [ACTH24] | 10.6 | – | – | –
11 | ELN 11mer: the 548 to 558th fragments of the amino acid sequence of elastin; SEQ ID NO: 20, GVPGLGVGAGV (listed as Homo sapiens) | – | 0.00016 s⁻¹ | 5.5 | b value of Equation (I) (dissociation mode: b<0.241 single, b≥0.241 multiple) ([2]; HSA sensor chip): 0; Δλ (maximum layer thickness change amount, second information) ([2]; HSA sensor chip): 0.043 nm
12 | brain natriuretic peptide [BNP] | 11 | – | – | –
13 | dynorphin A (YGGFLRRIRPKLK; listed as Homo sapiens) | 11.7 | – | 11.7 | Koff (dissociation rate constant, first information) ([2]; HSA sensor chip, peptide concentration during measurement per Table 5 (1-1000 μM), 0.1 M sodium phosphate buffer pH 6.9): 0.00617 s⁻¹
14 | amyloid β42 peptide [AB42] | 5.3 | – | 5.3 | –
15 | Lys-decapeptide (KKKKKKKKKK; Synthetic Lys decapeptide) [(Lys) 10] | – | 0.0002 s⁻¹ | 11 | b value of Equation (I) (dissociation mode: b<0.241 single, b≥0.241 multiple) ([2]; HSA sensor chip): 0.669; Δλ (maximum layer thickness change amount, second information) ([2]; HSA sensor chip): 0.045 nm
16 | NC(N)=NCCC[C@H](NC(=O)[C@H](Cc1ccccc1)NC(=O)[C@@H]1CCCN1C(=O)[C@H](CO)NC(=O)[C@H](Cc1ccccc1)NC(=O)CNC(=O)[C@@H]1CCCN1C(=O)[C@@H]1CCCN1C(=O)[C@@H](N)CCCN=C(N)N)C(=O)O [Bradykinin] (H-RPPGFSPFR-OH) | – | 0.01721 s⁻¹ | – | –
17 | glucagon | 6.8 | – | – | –
18 | Amyloid β40 peptide [AB40] | 5.3 | – | 5.3 | –
19 | histidine eicosa peptide (HHHHHHHHHHHHHHHHHHHH; Synthetic His eicosapeptide) [(His) 20] | 7.6 | – | – | –
20 | arginine decapeptide [(Arg) 10] | 13 | – | – | –
21 | B1 | – | 0.0066 s⁻¹ | 9.4 | b value of Equation (I) (dissociation mode: b<0.241 single, b≥0.241 multiple) ([2]; HSA sensor chip): 0.278; Δλ (maximum layer thickness change amount, second information) ([2]; HSA sensor chip): 0.12 nm

— patent US10976314B2, “Device, non-transitory computer-readable storage medium, and method for determining type of target peptide” (SYSMEX CORPORATION, priority 2014, dated 2021)
